Substrate: C[S+](CC[C@H](N)C(=O)O)C[C@H]1O[C@@H](n2cnc3c(N)ncnc32)[C@H](O)[C@@H]1O
Assay: purified protein
Details: co-substrate mGpppAmC RNA 1 μM; 100 nM enzyme; SAM 0.5-6 μM; labelled compound

B1: CMTR2 (Homo sapiens) (protein)
chain: MSKCRKTPVQQLASPASFSPDILADIFELFAKNFSYGKPLNNEWQLPDPSEIFTCDHTELNAFLDLKNSLNEVKNLLSDKKLDEWHEHTAFTNKAGKIISHVRKSVNAELCTQAWCKFHEILCSFPLIPQEAFQNGKLNSLHLCEAPGAFIASLNHYLKSHRFPCHWSWVANTLNPYHEANDDLMMIMDDRLIANTLHWWYFGPDNTGDIMTLKFLTGLQNFISSMATVHLVTADGSFDCQGNPGEQEALVSSLHYCEVVTALTTLGNGGSFVLKMFTMFEHCSINLMYLLNCCFDQVHVFKPATSKAGNSEVYVVCLHYKGREAIHPLLSKMTLNFGTEMKRKALFPHHVIPDSFLKRHEECCVFFHKYQLETISENIRLFECMGKAEQEKLNNLRDCAIQYFMQKFQLKHLSRNNWLVKKSSIGCSTNTKWFGQRNKYFKTYNERKMLEALSWKDKVAKGYFNSWAEEHGVYHPGQSSILEGTASNLECHLWHILEGKKLPKVKCSPFCNGEILKTLNEAIEKSLGGAFNLDSKFRPKQQYSCSCHVFSEELIFSELCSLTECLQDEQVVVPSNQIKCLLVGFSTLRNIKMHIPLEVRLLESAELTTFSCSLLHDGDPTYQRLFLDCLLHSLRELHTGDVMILPVLSCFTRFMAGLIFVLHSCFRFITFVCPTSSDPLRTCAVLLCVGYQDLPNPVFRYLQSVNELLSTLLNSDSPQQVLQFVPMEVLLKGALLDFLWDLNAAIAKRHLHFIIQREREEIINSLQLQN
K0.5: 1.3 ± 0.1 µM | kcat: 0.000944 ± 0.00011 s⁻¹

Source: paper PMC12723728
